The binders below were run against T1, CD3ε homodimer protein (human, UniProt P07766 23-126, limits assumed) (assay: SPR Biacore T200, CD3ε homodimer on chip;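 further: Light-chain single-residue variant antibodies injected over amine-coupled CD3ε homodimer on a CM4 chip at 25 °C, bound amount divided by that of the GLS3000-containing antibody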).
T1 construct: also called CD3 (CD3ε)
T1 sequence (P07766 23-126 limits assumed): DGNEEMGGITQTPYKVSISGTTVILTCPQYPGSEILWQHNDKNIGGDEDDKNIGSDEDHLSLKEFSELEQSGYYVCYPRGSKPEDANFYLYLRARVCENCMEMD

| Binder | ratio of amount bound vs unaltered GLS3000 |
| --- | --- |
| GLS3000 L33V one-arm antibody (antibody, human IgG1, kappa, L234A L235A, N297A, name in Kabat numbering) heavy: QVQLVESGGGVVQPGRSLRLSCAASGFTFSNAWMHWVRQAPGKGLEWVAQIKAKSNNYATYYAESVKGRFTISRDDSKNSLYLQMNSLKTEDTAVYYCRYVHYGAYYGVDAWGQGTTVTVSSASTKGPSVFPLAPSSKSTSGGTAALGCLVKDYFPEPVTVSWNSGALTSGVHTFPAVLQSSGLYSLSSVVTVPSSSLGTQTYICNVNHKPSNTKVDKKVEPKSCDKTHTCPPCPAPEAAGGPSVFLFPPKPKDTLMISRTPEVTCVVVDVSHEDPEVKFNWYVDGVEVHNAKTKPREEQYASTYRVVSVLTVLHQDWLNGKEYKCKVSNKALPAPIEKTISKAKGQPREPQVYTLPPSRCELTKNQVSLSCAVKGFYPSDIAVEWESNGQPENNYKTTPPVLDSDGSFFLVSKLTVDKSRWQQGNVFSCSVMHEALHNHYTQKSLSLSPDYKDDDDK EPKSSDKTHTCPPCPAPELLGGPSVFLFPPKPKDTLMISRTPEVTCVVVDVSHEDPEVKFNWYVDGVEVHNAKTKPREEQYNSTYRVVSVLTVLHQDWLNGKEYKCKVSNKALPAPIEKTISKAKGQPREPQVCTLPPSRDELTKNQVSLWCLVKGFYPSDIAVEWESNGQPENNYKTTPPVLDSDGSFFLYSKLTVDKSRWQQGNVFSCSVMHEALHNRYTQKSLSLSP light: DIVMTQSPLSLPVTPGEPASISCRSSQSLVHSNRNTYVHWYQQKPGQAPRLLIYKVSNRFSGVPDRFSGSGSGTDFTLKISRVEAEDVGVYYCGQGTQVPYTFGQGTKLEIKRTVAAPSVFIFPPSDEQLKSGTASVVCLLNNFYPREAKVQWKVDNALQSGNSQESVTEQDSKDSTYSLSSTLTLSKADYEKHKVYACEVTHQGLSSPVTKSFNRGEC | 1.05 |
| GLS3000 N28D one-arm antibody (antibody, human IgG1, kappa, L234A L235A, N297A, name in Kabat numbering) heavy: QVQLVESGGGVVQPGRSLRLSCAASGFTFSNAWMHWVRQAPGKGLEWVAQIKAKSNNYATYYAESVKGRFTISRDDSKNSLYLQMNSLKTEDTAVYYCRYVHYGAYYGVDAWGQGTTVTVSSASTKGPSVFPLAPSSKSTSGGTAALGCLVKDYFPEPVTVSWNSGALTSGVHTFPAVLQSSGLYSLSSVVTVPSSSLGTQTYICNVNHKPSNTKVDKKVEPKSCDKTHTCPPCPAPEAAGGPSVFLFPPKPKDTLMISRTPEVTCVVVDVSHEDPEVKFNWYVDGVEVHNAKTKPREEQYASTYRVVSVLTVLHQDWLNGKEYKCKVSNKALPAPIEKTISKAKGQPREPQVYTLPPSRCELTKNQVSLSCAVKGFYPSDIAVEWESNGQPENNYKTTPPVLDSDGSFFLVSKLTVDKSRWQQGNVFSCSVMHEALHNHYTQKSLSLSPDYKDDDDK EPKSSDKTHTCPPCPAPELLGGPSVFLFPPKPKDTLMISRTPEVTCVVVDVSHEDPEVKFNWYVDGVEVHNAKTKPREEQYNSTYRVVSVLTVLHQDWLNGKEYKCKVSNKALPAPIEKTISKAKGQPREPQVCTLPPSRDELTKNQVSLWCLVKGFYPSDIAVEWESNGQPENNYKTTPPVLDSDGSFFLYSKLTVDKSRWQQGNVFSCSVMHEALHNRYTQKSLSLSP light: DIVMTQSPLSLPVTPGEPASISCRSSQSLVHSDRNTYLHWYQQKPGQAPRLLIYKVSNRFSGVPDRFSGSGSGTDFTLKISRVEAEDVGVYYCGQGTQVPYTFGQGTKLEIKRTVAAPSVFIFPPSDEQLKSGTASVVCLLNNFYPREAKVQWKVDNALQSGNSQESVTEQDSKDSTYSLSSTLTLSKADYEKHKVYACEVTHQGLSSPVTKSFNRGEC | 0.19 |
| GLS3000 N28F one-arm antibody (antibody, human IgG1, kappa, L234A L235A, N297A, name in Kabat numbering) heavy: QVQLVESGGGVVQPGRSLRLSCAASGFTFSNAWMHWVRQAPGKGLEWVAQIKAKSNNYATYYAESVKGRFTISRDDSKNSLYLQMNSLKTEDTAVYYCRYVHYGAYYGVDAWGQGTTVTVSSASTKGPSVFPLAPSSKSTSGGTAALGCLVKDYFPEPVTVSWNSGALTSGVHTFPAVLQSSGLYSLSSVVTVPSSSLGTQTYICNVNHKPSNTKVDKKVEPKSCDKTHTCPPCPAPEAAGGPSVFLFPPKPKDTLMISRTPEVTCVVVDVSHEDPEVKFNWYVDGVEVHNAKTKPREEQYASTYRVVSVLTVLHQDWLNGKEYKCKVSNKALPAPIEKTISKAKGQPREPQVYTLPPSRCELTKNQVSLSCAVKGFYPSDIAVEWESNGQPENNYKTTPPVLDSDGSFFLVSKLTVDKSRWQQGNVFSCSVMHEALHNHYTQKSLSLSPDYKDDDDK EPKSSDKTHTCPPCPAPELLGGPSVFLFPPKPKDTLMISRTPEVTCVVVDVSHEDPEVKFNWYVDGVEVHNAKTKPREEQYNSTYRVVSVLTVLHQDWLNGKEYKCKVSNKALPAPIEKTISKAKGQPREPQVCTLPPSRDELTKNQVSLWCLVKGFYPSDIAVEWESNGQPENNYKTTPPVLDSDGSFFLYSKLTVDKSRWQQGNVFSCSVMHEALHNRYTQKSLSLSP light: DIVMTQSPLSLPVTPGEPASISCRSSQSLVHSFRNTYLHWYQQKPGQAPRLLIYKVSNRFSGVPDRFSGSGSGTDFTLKISRVEAEDVGVYYCGQGTQVPYTFGQGTKLEIKRTVAAPSVFIFPPSDEQLKSGTASVVCLLNNFYPREAKVQWKVDNALQSGNSQESVTEQDSKDSTYSLSSTLTLSKADYEKHKVYACEVTHQGLSSPVTKSFNRGEC | 0.46 |

More lines, now with the values ahead:

| ratio of amount bound vs unaltered GLS3000 | Binder |
| --- | --- |
| 0.25 | GLS3000 N28A one-arm antibody (antibody, human IgG1, kappa, L234A L235A, N297A, name in Kabat numbering) heavy: QVQLVESGGGVVQPGRSLRLSCAASGFTFSNAWMHWVRQAPGKGLEWVAQIKAKSNNYATYYAESVKGRFTISRDDSKNSLYLQMNSLKTEDTAVYYCRYVHYGAYYGVDAWGQGTTVTVSSASTKGPSVFPLAPSSKSTSGGTAALGCLVKDYFPEPVTVSWNSGALTSGVHTFPAVLQSSGLYSLSSVVTVPSSSLGTQTYICNVNHKPSNTKVDKKVEPKSCDKTHTCPPCPAPEAAGGPSVFLFPPKPKDTLMISRTPEVTCVVVDVSHEDPEVKFNWYVDGVEVHNAKTKPREEQYASTYRVVSVLTVLHQDWLNGKEYKCKVSNKALPAPIEKTISKAKGQPREPQVYTLPPSRCELTKNQVSLSCAVKGFYPSDIAVEWESNGQPENNYKTTPPVLDSDGSFFLVSKLTVDKSRWQQGNVFSCSVMHEALHNHYTQKSLSLSPDYKDDDDK EPKSSDKTHTCPPCPAPELLGGPSVFLFPPKPKDTLMISRTPEVTCVVVDVSHEDPEVKFNWYVDGVEVHNAKTKPREEQYNSTYRVVSVLTVLHQDWLNGKEYKCKVSNKALPAPIEKTISKAKGQPREPQVCTLPPSRDELTKNQVSLWCLVKGFYPSDIAVEWESNGQPENNYKTTPPVLDSDGSFFLYSKLTVDKSRWQQGNVFSCSVMHEALHNRYTQKSLSLSP light: DIVMTQSPLSLPVTPGEPASISCRSSQSLVHSARNTYLHWYQQKPGQAPRLLIYKVSNRFSGVPDRFSGSGSGTDFTLKISRVEAEDVGVYYCGQGTQVPYTFGQGTKLEIKRTVAAPSVFIFPPSDEQLKSGTASVVCLLNNFYPREAKVQWKVDNALQSGNSQESVTEQDSKDSTYSLSSTLTLSKADYEKHKVYACEVTHQGLSSPVTKSFNRGEC |
| 0.4 | GLS3000 N28E one-arm antibody (antibody, human IgG1, kappa, L234A L235A, N297A, name in Kabat numbering) heavy: QVQLVESGGGVVQPGRSLRLSCAASGFTFSNAWMHWVRQAPGKGLEWVAQIKAKSNNYATYYAESVKGRFTISRDDSKNSLYLQMNSLKTEDTAVYYCRYVHYGAYYGVDAWGQGTTVTVSSASTKGPSVFPLAPSSKSTSGGTAALGCLVKDYFPEPVTVSWNSGALTSGVHTFPAVLQSSGLYSLSSVVTVPSSSLGTQTYICNVNHKPSNTKVDKKVEPKSCDKTHTCPPCPAPEAAGGPSVFLFPPKPKDTLMISRTPEVTCVVVDVSHEDPEVKFNWYVDGVEVHNAKTKPREEQYASTYRVVSVLTVLHQDWLNGKEYKCKVSNKALPAPIEKTISKAKGQPREPQVYTLPPSRCELTKNQVSLSCAVKGFYPSDIAVEWESNGQPENNYKTTPPVLDSDGSFFLVSKLTVDKSRWQQGNVFSCSVMHEALHNHYTQKSLSLSPDYKDDDDK EPKSSDKTHTCPPCPAPELLGGPSVFLFPPKPKDTLMISRTPEVTCVVVDVSHEDPEVKFNWYVDGVEVHNAKTKPREEQYNSTYRVVSVLTVLHQDWLNGKEYKCKVSNKALPAPIEKTISKAKGQPREPQVCTLPPSRDELTKNQVSLWCLVKGFYPSDIAVEWESNGQPENNYKTTPPVLDSDGSFFLYSKLTVDKSRWQQGNVFSCSVMHEALHNRYTQKSLSLSP light: DIVMTQSPLSLPVTPGEPASISCRSSQSLVHSERNTYLHWYQQKPGQAPRLLIYKVSNRFSGVPDRFSGSGSGTDFTLKISRVEAEDVGVYYCGQGTQVPYTFGQGTKLEIKRTVAAPSVFIFPPSDEQLKSGTASVVCLLNNFYPREAKVQWKVDNALQSGNSQESVTEQDSKDSTYSLSSTLTLSKADYEKHKVYACEVTHQGLSSPVTKSFNRGEC |
| 0.46 | GLS3000 N28G one-arm antibody (antibody, human IgG1, kappa, L234A L235A, N297A, name in Kabat numbering) heavy: QVQLVESGGGVVQPGRSLRLSCAASGFTFSNAWMHWVRQAPGKGLEWVAQIKAKSNNYATYYAESVKGRFTISRDDSKNSLYLQMNSLKTEDTAVYYCRYVHYGAYYGVDAWGQGTTVTVSSASTKGPSVFPLAPSSKSTSGGTAALGCLVKDYFPEPVTVSWNSGALTSGVHTFPAVLQSSGLYSLSSVVTVPSSSLGTQTYICNVNHKPSNTKVDKKVEPKSCDKTHTCPPCPAPEAAGGPSVFLFPPKPKDTLMISRTPEVTCVVVDVSHEDPEVKFNWYVDGVEVHNAKTKPREEQYASTYRVVSVLTVLHQDWLNGKEYKCKVSNKALPAPIEKTISKAKGQPREPQVYTLPPSRCELTKNQVSLSCAVKGFYPSDIAVEWESNGQPENNYKTTPPVLDSDGSFFLVSKLTVDKSRWQQGNVFSCSVMHEALHNHYTQKSLSLSPDYKDDDDK EPKSSDKTHTCPPCPAPELLGGPSVFLFPPKPKDTLMISRTPEVTCVVVDVSHEDPEVKFNWYVDGVEVHNAKTKPREEQYNSTYRVVSVLTVLHQDWLNGKEYKCKVSNKALPAPIEKTISKAKGQPREPQVCTLPPSRDELTKNQVSLWCLVKGFYPSDIAVEWESNGQPENNYKTTPPVLDSDGSFFLYSKLTVDKSRWQQGNVFSCSVMHEALHNRYTQKSLSLSP light: DIVMTQSPLSLPVTPGEPASISCRSSQSLVHSGRNTYLHWYQQKPGQAPRLLIYKVSNRFSGVPDRFSGSGSGTDFTLKISRVEAEDVGVYYCGQGTQVPYTFGQGTKLEIKRTVAAPSVFIFPPSDEQLKSGTASVVCLLNNFYPREAKVQWKVDNALQSGNSQESVTEQDSKDSTYSLSSTLTLSKADYEKHKVYACEVTHQGLSSPVTKSFNRGEC |

Source: US20260049138A1 (Chugai, published 2026)
